One substance from patent publication US5759769 can be followed below.

The target in the experiment is CLTB-106 (negative control). Kind of experiment: ELISA, peptide at 1 ug per well, 2F5 at 40 ng per well; negative control. (ELISA stands for enzyme-linked immunosorbent assay.)

As for “human neutralizing monoclonal antibody 2F5”, the Absorbance (450 nm) (absorbance at 450 nm) stood at 0.07.
